Measurements published in US20240035031A1.

Biological target: PYL1-MS2 (MS2 binding protein fused to PYL1 via a glycine-serine linker) (UniProt Q8VZS8)
Assay: cell-based or functional assay

dPspCas13b-ABI1 (catalytically inactive Prevotella sp. Cas13b fused to the abscisic acid-binding protein ABI1 via a glycine-serine linker) (from UniProt P49597 126-423)
GFP+ cells by flow cytometry (split GFP trans-splicing reporter) in the presence of 1.5 mM ABA (% of cells GFP+): > 40
